Laboratory results taken from the supplement of paper PMC11780869.

Tested on: Bacillus subtilis
Assay: cleaved RNA product abundance (RNA/gDNA barcode ratio) relative to median wild-type variant (ratio to wild type); higher = more accumulation of the downstream cleavage product
Method: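 MPRA in B. subtilis. Mutagenized RNase Y cleavage-site regions (9% mutation rate) were inserted into a barcoded reporter mRNA (truncated aprE or tetM). Cells were grown in LB at 37°C to OD600 0.3. The cleaved RNA isoform was gel-purified and its barcodes counted; the RNA:gDNA barcode ratio was normalised to the median wild-type variant, and the median over barcodes is reported per variant. The printed sequence is the variable window only; the reporter flanks are not printed.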

[1] = experiment (reporter, strain, medium): exp 2b: truncated aprE reporter, strain BJT200, cleavage site: cggR-gapA (positions -7 to +36 mutated)
[2] = experiment (reporter, strain, medium): exp 4a: truncated aprE reporter, strain BJT201 with 2% xylose (RNase J1 expressed), cleavage site: cggR-gapA (positions -7 to +36 mutated)
[3] = experiment (reporter, strain, medium): exp 8a: truncated aprE reporter, strain BJT201 with 2% xylose (RNase J1 expressed), cleavage site: glnRA (positions -5 to +31 mutated)

| Sequence | cleaved RNA product abundance [2] | further results |
| --- | --- | --- |
| ACAGACGAAGGAGCCGCAAAGAAGTTATTAAGGGATGAATAAGCCCTCAATATAAATATCTCTCACTTATTTAAA | 0.634 | cleaved RNA product abundance [1]: 0.683; cleaved RNA product abundance (experiment (reporter, strain, medium): exp 6: tetM reporter, strain 168, cleavage site: cggR-gapA (positions -7 to +36 mutated)): 0.775 |
| ACAGACGAAGGAGCCGCAAAGAAGTTATTGAGGGATGAATACTCCCTCAATATAAATATCTCTCACTTATTTAAA | 0.0909 |  |
| ACAGACGAAGGAGCCGCAAACAAGTTATTAAGGGATGGATAATCCCTCAATATAAATATCTCTCACTTATTTAAA | 0.545 |  |
| ACAGACGAAGGAGCCGCAAAGAAGTTATAAATGGATGAATAATCCCTCAATATAAATATCTCTCACTTATTTAAA | 0.165 | cleaved RNA product abundance [1]: 0.113 |
| ACAGACGAAGGAGCCGCAATGAAGTTATTAAGGGATGAATAATCCCTCAAAATAAATATCTCTCACTTATTTAAA | 0.355 |  |
| ACAGACGAAGGAGCCGCAAAGAAGTTATTACGGAATGAATAATCCCTCAATATAAATATCTCTCACTTATTTAAA | 0.0966 | cleaved RNA product abundance [1]: 0.1 |
| ACAGACGAAGGAGCCGCAAAGAAGATAATAAGGGATGAATAATCCCTCAATATAAATATCTCTCACTTATTTAAA | 0.227 |  |
| ACAGACGAAGGAGCCGCAAAGAAGATATTAAGGAATGAATAATCCCTCAATATAAATATCTCTCACTTATTTAAA | 0.175 | cleaved RNA product abundance [1]: 0.12 |
| ACAGACGAAGGAGCCGCAAAGAAGTTATTAAGGGATGAATAATCCCTCAAAATAGATATCTCTCACTTATTTAAA | 0.322 |  |
| ACAGACGAAGGAGCCGCAAACAAGTTATTAAGGGATGAATATTCCCTCAATATAAATATCTCTCACTTATTTAAA | 0.608 |  |
| ACAGACGAAGGAGCCGCAAAGCAGTTATTAAGGGATGAATAATCCCTCAAAATAAATATCTCTCACTTATTTAAA | 0.468 |  |
| ACAGACGAAGGAGCCGCAAAGAAGTTATTAAGGAATGAATAATCCCTCAATATAAACATCTCTCACTTATTTAAA | 0.121 |  |
| ACAGACGAAGGAGCCGCAAAGAAGTTATAAAGGGATGAATAATCACTCAATATAAATATCTCTCACTTATTTAAA | 0.169 | cleaved RNA product abundance [1]: 0.107 |
| CGACATGTCCCGCTTCTTTCATTAATCCGGTATCAACTGTTTTGCTATATACATTTACCTTTTAAGAGGAGGAAT |  | cleaved RNA product abundance [3]: 0.375 |
| ACAGACGAAGGAGCCGCAAAGAAATTATTAGGGGATGAATAATCCCTCAATATAAATATCTCTCACTTATTTAAA | 0.586 |  |
| ACAGACGAAGGAGCCGCAAAGAAGTTATTAAGTGATAAATAATTCCTCAATATAAATATCTCTCACTTATTTAAA | 0.0999 |  |
| ACAGACGAAGGAGCCGCAAAGAAGTTATTAAGCGATGAATAAACCCTCAATATAAATATCTCTCACTTATTTAAA | 0.0954 |  |
| ACAGACGAAGGAGCCGCAAAGAATTTATTAAGCGATGAATAATCCCTCAATATAAATATCTCTCACTTATTTAAA | 0.122 | cleaved RNA product abundance [1]: 0.116 |
| ACAGACGAAGGAGCCGCAAAGAAGTTATTAACGGATGAATAATCCCTCAATAAAAATATCTCTCACTTATTTAAA | 0.08 |  |
| ACAGACGAAGGAGCCGCACAGAAGTGATTAAGGGATGAATAATCCCTCAATATAAATATCTCTCACTTATTTAAA | 0.311 | cleaved RNA product abundance [1]: 0.259 |
| ACAGACGAAGGAGCCGCAAAGAAGTTATTAAGGGAAGACTAATCCCTCAATATAAATATCTCTCACTTATTTAAA | 0.452 |  |
| ACAGACGAAGGAGCCGCATAGAAGTTATTAAGGGATGAATAAACCCTCAATATAAATATCTCTCACTTATTTAAA | 0.471 | cleaved RNA product abundance [1]: 0.448 |
| CGACATGTCCCGCTTCTTTCATTAATCCGTTAGTAACTGTTTTCCTATATACATTTACCTTTTAAGAGGAGGAAT |  | cleaved RNA product abundance [3]: 0.44 |
| CGACATGTCCCGCTTCTTTCATTAATACGTTAGCAACTGTTTTGCTATATAAATTTACCTTTTAAGAGGAGGAAT |  | cleaved RNA product abundance [3]: 1.02 |
| ACAGACGAAGGAGCCGCAAAGAAGTTATTAACGGATGGATAATCCCTCAATATAAATATCTCTCACTTATTTAAA | 0.152 |  |
| ACAGACGAAGGAGCCGCAAAGTAGTTATTAAGGGATGAATAATCCTTCAATATAAATATCTCTCACTTATTTAAA | 0.543 |  |
| CGACATGTCCCGCTTCTTTCATTAATCCGTTAGCAACTGTAATGCTATATACATTTACCTTTTAAGAGGAGGAAT |  | cleaved RNA product abundance [3]: 1.06 |
| ACAGACGAAGGAGCCGCAAAGAACTTATTAAGGGATGAATAATCTCTCAATATAAATATCTCTCACTTATTTAAA | 0.418 |  |
